These results are taken from PMC2796330 (Molecular cell, 2009).

Assay [1] has as its target recombinant Nedd4L WW2 domain. Description: ITC. In general terms: Isothermal titration calorimetry measures the heat released or taken up as one component is titrated into another.
The target in the next assay is Smurf1 WW2 domain. Put plainly: ITC.

Where no end group is shown, it is not given here. [ ]: non-standard residue; d: D form. pT = C[C@@H](OP(=O)(O)O)[C@H](N)C(=O)O

Chain of Smurf1 WW2 domain (Q9HCE7 whole entry, the tested form may be a part): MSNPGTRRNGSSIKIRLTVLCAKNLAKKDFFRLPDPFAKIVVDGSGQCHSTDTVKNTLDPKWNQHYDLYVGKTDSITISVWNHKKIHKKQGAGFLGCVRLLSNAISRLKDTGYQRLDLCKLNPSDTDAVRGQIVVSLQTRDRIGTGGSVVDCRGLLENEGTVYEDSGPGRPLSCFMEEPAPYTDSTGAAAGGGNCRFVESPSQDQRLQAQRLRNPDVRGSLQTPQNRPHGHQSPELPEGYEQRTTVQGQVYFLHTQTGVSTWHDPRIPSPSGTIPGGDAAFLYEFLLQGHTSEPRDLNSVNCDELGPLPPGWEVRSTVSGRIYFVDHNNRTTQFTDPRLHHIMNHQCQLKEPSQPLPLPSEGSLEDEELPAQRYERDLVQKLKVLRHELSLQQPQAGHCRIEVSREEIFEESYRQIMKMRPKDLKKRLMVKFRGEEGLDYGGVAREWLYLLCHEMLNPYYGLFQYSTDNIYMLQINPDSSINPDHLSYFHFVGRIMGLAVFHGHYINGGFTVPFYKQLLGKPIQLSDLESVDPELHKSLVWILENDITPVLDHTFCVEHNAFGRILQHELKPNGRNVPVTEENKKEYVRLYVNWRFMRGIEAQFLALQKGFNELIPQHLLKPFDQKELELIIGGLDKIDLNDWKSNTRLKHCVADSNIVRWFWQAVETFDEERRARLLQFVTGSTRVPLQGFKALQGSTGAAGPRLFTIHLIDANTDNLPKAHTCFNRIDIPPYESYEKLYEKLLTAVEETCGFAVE
Chain of recombinant Nedd4L WW2 domain (Q96PU5 whole entry, the tested form may be a part): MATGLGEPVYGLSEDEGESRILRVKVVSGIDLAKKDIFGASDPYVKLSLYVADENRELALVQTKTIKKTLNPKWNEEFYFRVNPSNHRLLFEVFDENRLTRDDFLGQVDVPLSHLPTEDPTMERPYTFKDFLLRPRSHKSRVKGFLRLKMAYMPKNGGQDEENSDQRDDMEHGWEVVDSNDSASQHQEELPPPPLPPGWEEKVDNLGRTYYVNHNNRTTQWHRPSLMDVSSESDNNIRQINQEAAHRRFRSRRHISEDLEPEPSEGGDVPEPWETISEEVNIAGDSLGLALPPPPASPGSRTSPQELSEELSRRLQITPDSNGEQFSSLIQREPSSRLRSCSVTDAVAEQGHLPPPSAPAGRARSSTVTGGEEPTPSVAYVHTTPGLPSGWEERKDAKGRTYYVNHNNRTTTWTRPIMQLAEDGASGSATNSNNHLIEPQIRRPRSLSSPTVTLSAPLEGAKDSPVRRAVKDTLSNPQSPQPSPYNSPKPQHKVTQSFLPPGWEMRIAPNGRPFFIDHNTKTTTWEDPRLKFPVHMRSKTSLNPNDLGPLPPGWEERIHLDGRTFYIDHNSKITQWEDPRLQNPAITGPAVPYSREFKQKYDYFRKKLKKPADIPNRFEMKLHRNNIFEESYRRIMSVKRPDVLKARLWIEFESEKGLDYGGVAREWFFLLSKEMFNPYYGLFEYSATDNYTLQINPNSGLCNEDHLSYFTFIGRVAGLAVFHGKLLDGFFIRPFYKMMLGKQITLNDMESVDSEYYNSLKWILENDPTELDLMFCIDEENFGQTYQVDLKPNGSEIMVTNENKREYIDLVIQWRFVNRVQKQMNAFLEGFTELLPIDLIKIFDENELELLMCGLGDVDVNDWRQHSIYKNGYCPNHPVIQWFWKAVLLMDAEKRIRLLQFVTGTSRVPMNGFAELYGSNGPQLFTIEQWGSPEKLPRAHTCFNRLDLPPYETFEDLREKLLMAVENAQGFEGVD

B1: Smad3 pT-PY motif peptide (phosphothreonine) (peptide)
chain: IPE[pT]PPPGYLSED
By Kd is commonly meant a measure of binding affinity in units of concentration. Consider B1, for which the Kd was found to be 4.1 µM in assay [1] and 36 µM in the assay with Smurf1 WW2 domain.

B2: Smad1 T-PY motif peptide (peptide)
chain: PADTPPPAYLPPE
B2 displayed a dissociation constant (Kd) in the assay with Smurf1 WW2 domain of 32 µM.

B3: Smad2 pT-PY motif peptide (phosphothreonine) (peptide)
chain: IPE[pT]PPPGYISED
As for B3, in assay [1], the Kd was determined as 7.8 µM.
